Assay results: paper PMC4853763

Molecular target: E6/e6ap complex with the wt e6ap(1-16) peptide construct (HPV16 | human) (UniProt P03126)
Assay: ITC

p53 core (DNA binding) domain (from UniProt P04637 94-311) (domain or fragment)
dH: -19.1 kcal/mol | stoichiometry N: 0.516
